From patent US20220162322A1 (CAPELLA BIOSCIENCE, published 2022) come the findings set out here.

Series [1] addresses T1, human BDCA-2-Fc (hIgG1-Fc-hBDCA-2) (human).
T1 construct: also called huBDCA2-Fc
The series can be described thus: ELISA on plate-coated human BDCA2-Fc. As to the method: 100 ul per well of 0.5 μg/ml of human BDCA2-Fc in PBS pH 7.4 was incubated overnight at 4 C. The wells were then washed 3 times with PBST (PBS+0.05% Tween 20) and then blocked with 250 ul 4% Skimmed Milk (Marvel, cat. no. 3023033 Lot no. 7169) in PBS for 120 min at RT. The wells were washed and then incubated with 100 ul per well of humanized mAbs at 3 fold dilutions (from 1 μg/ml to 0.001 μg/ml) in 1% Skimmed Milk PBS buffer at pH 7.4. After 60 min at RT the wells were washed 3 times in PBST and 100 ul of mouse anti-human IgG (anti-CH1-HRP; 1:1000, BD Pharmigen cat. no. 555788) or donkey anti-mouse IgG (anti-mouse IgG-HRP) at 1:5000 dilution (Jackson ImmunoResearch, Cat. no. 715-035-150) in 1% Skimmed Milk PBS was added. Development was with TMB (ThermoFisher, cat. no. 00-4201-56), 100 ul/well and the reaction stopped with 100 μl/well H2SO4 (cat. nr. J/8430/15, lot nr.) and the absorbance read at 450 nm. The EC50 was calculated using Graphpad Prism software. A negative (1% Skimmed Milk/PBS) and positive control (anti-BDCA-2, AC144, Miltenyi Biotec, cat. no. 130-090-690) were utilised in the assay.

Series [2] concerns the target T2, human BDCA-2 (CLEC4C) expressed on transfected U937 cells (human, UniProt Q8WTT0 1-213).
T2 construct: also called cell expressed human BDCA-2; Q8WTT0
T2 sequence: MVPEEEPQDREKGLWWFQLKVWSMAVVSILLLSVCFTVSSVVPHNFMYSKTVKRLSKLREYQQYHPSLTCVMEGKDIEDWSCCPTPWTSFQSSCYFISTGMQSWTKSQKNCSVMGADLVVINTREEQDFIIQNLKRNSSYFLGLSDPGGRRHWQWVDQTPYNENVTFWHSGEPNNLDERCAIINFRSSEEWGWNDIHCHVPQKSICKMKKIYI
The series can be described thus: flow cytometry (MFI titration) on cells expressing human BDCA-2. As to the method: (§1) Cells expressing human and cynomolgus BDCA-2 were resuspend at 2×10⁶ cells/mi in FACS buffer (2% FBS/PBS) and 50 μl of the cell suspension was added per well, in a 96-well V bottom plate. The plate was centrifuge and the supernatant discarded. 12 serial, 2-fold dilutions of mAbs, starting at 50 μg/ml (range 50-0.024 μg/ml), in FACS buffer were prepared and 25 μl of the mAb dilutions added to wells, in triplicate. The plate was then incubated for 60 min at room temperature then centrifuged and washed 3× with 150 μl FACS buffer. To each well was then added 25 μl goat-anti-human PE conjugate (or goat-anti-mouse in the case of AC144), diluted 1:200 in FACS buffer. The plates were incubated for 60 min at room temperature protected from light and centrifuged and washed 3× with 150 μl FACS buffer. 25 μl per well of 2% PFA 2% was added and incubated for 20 min at 4° C., protected from light and analysed on the iQue screener.
(§2) Serial dilutions of the 4 chimeric mAbs (50-0.25 ug/ml) were prepared and incubated with cells expressing human and cynomolgus BDCA-2. After staining, the median fluorescence intensity (MFI) of the cells was measured and the data points of the dilution series were fitted on a sigmoidal curve after normalization to determine the EC50 values.

In series [3] the target is T3, cynomolgus BDCA-2 expressed on transfected U937 cells (cynomolgus, UniProt Q8WTT0 1-213 (human entry)).
T3 construct: also called cell expressed cynomolgus BDCA-2
T3 chain: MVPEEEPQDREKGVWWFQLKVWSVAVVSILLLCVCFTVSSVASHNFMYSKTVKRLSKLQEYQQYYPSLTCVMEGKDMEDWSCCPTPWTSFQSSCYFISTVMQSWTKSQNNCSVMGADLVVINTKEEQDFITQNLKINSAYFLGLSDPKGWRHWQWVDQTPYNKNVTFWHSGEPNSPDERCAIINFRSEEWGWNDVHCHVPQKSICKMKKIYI
Put plainly: flow cytometry (MFI titration) on cells expressing cynomolgus BDCA-2. As to the method:
as §1, §2
In general terms: Flow cytometry measures light scatter and fluorescence of single cells or particles in a stream.

Series [4] has as its target T1, human BDCA-2-Fc (hIgG1-Fc-hBDCA-2). Put plainly: SPR (BIAcore T200), huBDCA2-Fc immobilised on CM5 chip, mAb injected. As to the method: A BIAcore T200 was used with BIAcore run buffer (HBS-EP) at pH7.4. 692RU of huBDCA2-Fc was immobilized to a CM5 chip (CFJB156) utilising 5 μg/ml of huBDCA2-Fc with the BIAcore EDC/NHS kit according to the manufacturer's instructions. Two-fold dilutions of the humanized mAbs were injected starting at 200 nM down to 3.1 nM with a contact time of 60 s at a flow of 30 or 60 ul/min at 25° C. followed by an off-rate wash for 5 minutes with BIAcore buffer. […] The BIAcore T200 software was used to calculate Ka (1/Ms), Kd (1/s) and the KD (nM).

Series [5] concerns the molecule itself. Put plainly: High-Mass MALDI mass spectrometry with chemical cross-linking. As to the method:
For the characterization of BDCA2(CLEC4C)/3E5 (variant 12) complexes, the measurements were performed using an Autoflex II MALDI ToF ToF mass spectrometer (Bruker) equipped with a CovalX HM4 interaction module. The CovalX interaction module contains a detecting system designed to optimize detection up to 2 MDa with nano-molar sensitivity. […] In order to characterize CLEC4C we submitted the sample to trypsin, chymotrypsin, Asp-N, elastase and thermolysin proteolysis followed by nLC-LTQ-Orbitrap MS/MS analysis. For the characterization, a nLC Ultimate 3000-RSLC system in line with a LTQ-Orbitrap mass spectrometer (Thermo Scientific) was used. Sample preparation was as follows:
In order to determine the epitope of CLEC4C/3E5 complex with high resolution, the protein complexes were incubated with deuterated cross-linkers and subjected to multi-enzymatic cleavage. After enrichment of the crosslinked peptides, the samples were analyzed by high resolution mass spectrometry (nLC-LTQ-Orbitrap MS) and the data generated were analyzed using XQuest and Stavrox software.

Series [6] addresses T4, BDCA-2 (CLEC4C, CD303) on human plasmacytoid dendritic cells (purified pDC or pDC within PBMC) (human, UniProt Q8WTT0 1-213).
T4 sequence: T2 sequence
The series can be described thus: cell-based or functional assay.

Series [7] addresses T1, human BDCA-2-Fc (hIgG1-Fc-hBDCA-2). The series can be described thus: SPR (BIAcore), comparison of KD.
Series [8] has as its target T4, BDCA-2 (CLEC4C, CD303) on human …. The series can be described thus: cell-based or functional assay. This is another data set of the same source.

Substitutions are numbered along the chain they refer to.

T1 sequence (chain, as listed by the source limits assumed): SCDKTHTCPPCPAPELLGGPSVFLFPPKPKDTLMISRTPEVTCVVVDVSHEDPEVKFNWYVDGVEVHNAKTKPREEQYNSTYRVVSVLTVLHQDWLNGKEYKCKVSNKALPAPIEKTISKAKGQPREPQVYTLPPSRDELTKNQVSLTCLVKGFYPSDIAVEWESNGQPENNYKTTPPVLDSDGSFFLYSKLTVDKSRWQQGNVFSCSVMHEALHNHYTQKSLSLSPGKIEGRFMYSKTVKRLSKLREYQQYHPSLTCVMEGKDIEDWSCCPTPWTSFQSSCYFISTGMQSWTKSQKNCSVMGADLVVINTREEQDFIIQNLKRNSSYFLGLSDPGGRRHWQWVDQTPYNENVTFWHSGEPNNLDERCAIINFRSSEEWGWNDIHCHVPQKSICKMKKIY

B1: chimeric mAb 3E05 (parental mouse 3E05 VH/VL on human IgG1) (antibody, V domains shown)
VH: EVKLVESGGGLVKPGGSLKLSCAASGFTFSSYTMSWVRQTPEKRLEWVAYISSGGGNTYYPDSVKGRFTISRDNARNTLYLQMSSLRSEDTAMYYCARHDYYDGGLYYAMDYWGQGTSVTVSS
VL: DIVLTQSPASLAVSLGQRATISCKASQSVDYDGDSSMNWYQQKPGQPPKLLICAASTLESGIPARFSGSGSGTDFTLNIHPVEEEDAATYYCQQTNEDPPTFGGGTKLEIK
notes: also called 3E5; Parental 3E05
In the case of B1, the EC50 in series [1] amounted to 0.3 nM; in series [2], 1.76 µg/mL; in series [3], 2.6 µg/mL. The molecule also came in with a Kd in series [4] of 0.35 nM.

B2: chimeric mAb 21E06 (antibody, human IgG1, V domains shown)
VH: EVKLVESGGGLVKSGGSLKLSCEVSGFTFSSYTISWVRQTPEKRLEWVAYISSGGDNAYYPDSVKGRFTISRDNARNTLYLQMSSLRSEDTAMYYCARHLYYGDYFYVMDYWGQGTSVTVSS
VL: B1 VL with S35N, S36C, M37L, N38H, Y40F, C53Y, T57N, T95S
notes: also called Parental 21E06
For the molecule B2, the EC50 was found to be 0.3 µg/mL in series [2] and 0.92 µg/mL in series [3].

B3: chimeric mAb 28B01 (antibody, human IgG1, V domains shown)
VH: EVKLVESGGGLVKPGGSLKLSCAASGFTFSYYTMSWVRQTPEKRLEWVAYISSGGDNAYYPDSVRGRFTISRDNARNTLYLQMSSLRSEDTAMYYCARHHYSNYFWYFDVWGAGTTVTVSS
VL: B1 VL with D32A, S36Y, M37V, C53Y, T57N, T95S
notes: also called 28B1; Parental 28B01
Turning to B3, the half-maximal effective concentration (EC50) in series [2] turned out to be 0.77 µg/mL; in series [3], 0.79 µg/mL.

B4: CLEC4C (BDCA-2) protein used for cross-linking / mass spectrometry epitope mapping (receptor)
chain: NFMYSKTVKRLSKLREYQQYHPSLTCVMEGKDIEDWSCCPTPWTSFQSSCYFISTGMQSWTKSQKNCSVMGADLVVINTREEQDFIIQNLKRNSSYFLGLSDPGGRRHWQWVDQTPYNENVTFWHSGEPNNLDERCAIINFRSSEEWGWNDIHCHVPQKSICKMKKIYI
notes: also called BDCA2(CLEC4C)
Turning to B4, the binding result in series [5] is on record as “no binding”.

B5: 3E05_var12 (antibody, human IgG1, V domains shown)
VH: EVQLVESGGGLVKPGGSLRLSCAASGFTFSSYTMSWVRQAPGKGLEWVAYISSGGGQTYYPDSVKGRFTISRDNAKNSLYLQMNSLRAEDTAVYYCARHDYYEGGLYYAMDYWGQGTLVTVSS
VL: DIVMTQSPDSLAVSLGERATINCKSSQSVDYDGDSSMNWYQQKPGQPPKLLIYAASTLESGVPSRFSGSGSGTDFTLTISSLQAEDVATYYCQQTNEDPPTFGGGTKVEIK
notes: also called 3E05 VL3VH4 (var_12); 3E05VL3VH4 (var_12)
For the molecule B5, in series [6], the “IC50, nM; inhibition of IFNα from ODN stimulated healthy donor PBMC” value came to 0.1 nM and the “IC90, nM; inhibition of IFNα from ODN stimulated healthy donor PBMC” value is 0.85 nM. The “fold higher affinity than parental wild type 3E05 and AC144” value in series [7] is more than 100 fold. Besides, in series [1], the EC50 came out at 0.33 nM. Also, in series [8], the “IC50, ng/ml; inhibition of IFNα from ODN stimulated healthy donor PBMC” value came out at 14.3 ng/mL and the “IC90, ng/ml; inhibition of IFNα from ODN stimulated healthy donor PBMC” value is 127 ng/mL. Also, in series [5], the binding result is given as “no binding”. Besides, the dissociation constant Kd in series [4] is less than 0.01 nM.

Usually EC50 stands for the midpoint of the concentration-response curve. A high value points to a less potent agent. As a reminder, the Kd is the equilibrium constant for the complex coming apart.
